# T1: full-length She1 (She1-FL), HALO-tagged (S. cerevisiae), P38200
# T1 chain: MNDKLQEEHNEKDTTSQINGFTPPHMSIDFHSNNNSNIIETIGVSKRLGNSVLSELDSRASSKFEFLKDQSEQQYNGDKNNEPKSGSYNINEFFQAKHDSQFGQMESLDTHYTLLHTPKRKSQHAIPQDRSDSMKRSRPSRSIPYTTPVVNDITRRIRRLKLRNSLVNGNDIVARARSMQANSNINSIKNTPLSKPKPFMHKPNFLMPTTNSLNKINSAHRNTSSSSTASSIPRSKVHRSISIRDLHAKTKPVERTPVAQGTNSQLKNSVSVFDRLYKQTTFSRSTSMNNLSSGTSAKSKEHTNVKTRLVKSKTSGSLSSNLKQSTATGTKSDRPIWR
# Experiments:
# [1] = target: Taxol-stabilized microtubules polymerised from bovine tubulin (bovine) (UniProt Q6B856); test: co-sedimentation; low-speed microfuge pelleting (15,871 g, 10 min, room temperature); 5 µM She1-C–TMR with varying concentrations of Taxol-stabilized MTs, MAP buffer with 50 mM KCl; quadratic fit, apparent dissociation constant; stoichiometry from the saturation point
# [2] = target: Taxol-stabilized microtubules polymerised from bovine tubulin (bovine) (UniProt Q6B856); test: wide-field fluorescence microscopy of labelled protein on microtubules; 1 µM TMR-labeled She1 construct preincubated with 60 nM Taxol-stabilized HiLyte 488–labeled MTs, room temperature, 20 min, MAP-binding buffer with 150 mM KCl and 20 µM Taxol; MTs held in a flow chamber by antitubulin antibody; bound TMR fluorescence on the MT measured
# [3] = target: T1, full-length She1 (She1-FL), HALO-tagged …; test: negative-stain EM; purified She1-FL at 4 µM on carbon-coated grids, 0.75% uranyl formate; conditions: remark: other sources report otherwise
Binder,stoichiometry N (She1-C–TMR per tubulin) [1],mean TMR fluorescence on MTs [2],stoichiometry N [3]
"She1-C, C-terminal 194–338 aa of She1, HALO-tagged (domain or fragment, HaloTag TMR ligand on the HALO tag where labelled) SKPKPFMHKPNFLMPTTNSLNKINSAHRNTSSSSTASSIPRSKVHRSISIRDLHAKTKPVERTPVAQGTNSQLKNSVSVFDRLYKQTTFSRSTSMNNLSSGTSAKSKEHTNVKTRLVKSKTSGSLSSNLKQSTATGTKSDRPIWR",1,21000 a.u.,
"full-length She1 (She1-FL), HALO-tagged (natural protein, HaloTag TMR ligand (MT-binding and cross-linking assays) or HaloTag Alexa Fluor 488 ligand (ultracentrifugation) on the HALO tag) MNDKLQEEHNEKDTTSQINGFTPPHMSIDFHSNNNSNIIETIGVSKRLGNSVLSELDSRASSKFEFLKDQSEQQYNGDKNNEPKSGSYNINEFFQAKHDSQFGQMESLDTHYTLLHTPKRKSQHAIPQDRSDSMKRSRPSRSIPYTTPVVNDITRRIRRLKLRNSLVNGNDIVARARSMQANSNINSIKNTPLSKPKPFMHKPNFLMPTTNSLNKINSAHRNTSSSSTASSIPRSKVHRSISIRDLHAKTKPVERTPVAQGTNSQLKNSVSVFDRLYKQTTFSRSTSMNNLSSGTSAKSKEHTNVKTRLVKSKTSGSLSSNLKQSTATGTKSDRPIWR",,22000 a.u.,
"full-length She1 (She1-FL), HALO-tagged, P38200 1-338 (natural protein, here or on the partner: HaloTag TMR ligand (MT-binding and cross-linking assays) or HaloTag Alexa Fluor 488 ligand (ultracentrifugation) on the HALO tag; HaloTag TMR ligand (MT-binding and cross-linking assays) or HaloTag Alexa Fluor 488 ligand (ultracentrifugation) on the HALO tag) MNDKLQEEHNEKDTTSQINGFTPPHMSIDFHSNNNSNIIETIGVSKRLGNSVLSELDSRASSKFEFLKDQSEQQYNGDKNNEPKSGSYNINEFFQAKHDSQFGQMESLDTHYTLLHTPKRKSQHAIPQDRSDSMKRSRPSRSIPYTTPVVNDITRRIRRLKLRNSLVNGNDIVARARSMQANSNINSIKNTPLSKPKPFMHKPNFLMPTTNSLNKINSAHRNTSSSSTASSIPRSKVHRSISIRDLHAKTKPVERTPVAQGTNSQLKNSVSVFDRLYKQTTFSRSTSMNNLSSGTSAKSKEHTNVKTRLVKSKTSGSLSSNLKQSTATGTKSDRPIWR",,,6

# — PMC5584168
